Consider 1 molecule from patent US20240417458A1 (DISC MEDICINE, published 2024).

Several values for one entry are separate records, joined by “and”; a condition that tells them apart may be missing. Equal values may be shown once.

In assay [1] the target is T1, soluble rat RGMa (rat, UniProt D4A188 48-421).
T1 construct: Soluble antigen in BIAcore
T1 sequence: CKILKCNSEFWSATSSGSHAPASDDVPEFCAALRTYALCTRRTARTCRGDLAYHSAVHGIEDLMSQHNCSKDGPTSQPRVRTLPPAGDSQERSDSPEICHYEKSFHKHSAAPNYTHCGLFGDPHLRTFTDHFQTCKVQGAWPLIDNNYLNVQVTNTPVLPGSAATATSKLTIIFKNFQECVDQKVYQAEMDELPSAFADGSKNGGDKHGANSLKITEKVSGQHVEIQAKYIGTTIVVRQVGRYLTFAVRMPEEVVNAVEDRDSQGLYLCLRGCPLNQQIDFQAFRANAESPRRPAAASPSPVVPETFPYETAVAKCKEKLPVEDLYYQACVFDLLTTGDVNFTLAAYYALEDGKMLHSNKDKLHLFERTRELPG
The assay is described as follows: SPR (BIAcore).
Experimental: (§1) Binding affinities of the anti-HJV antibodies to soluble human RGMa, Rat RGMa and human RGMc were measured by BIAcore analysis.

The target of assay [2] is T2, soluble human RGMc (human, UniProt Q6ZVN8 36-400).
T2 construct: also called huRGMc; soluble hRGMc
T2 sequence: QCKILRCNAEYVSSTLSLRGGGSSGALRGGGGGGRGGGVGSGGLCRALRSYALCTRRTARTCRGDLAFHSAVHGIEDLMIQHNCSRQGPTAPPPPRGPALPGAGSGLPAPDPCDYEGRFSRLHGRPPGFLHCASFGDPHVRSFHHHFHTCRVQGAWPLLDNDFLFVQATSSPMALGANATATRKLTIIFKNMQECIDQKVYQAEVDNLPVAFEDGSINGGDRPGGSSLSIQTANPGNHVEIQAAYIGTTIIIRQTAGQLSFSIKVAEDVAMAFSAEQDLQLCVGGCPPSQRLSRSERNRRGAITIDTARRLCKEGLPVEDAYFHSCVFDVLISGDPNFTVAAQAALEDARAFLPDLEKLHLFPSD
The assay can be described thus: SPR (BIAcore).
Experimental: as §1

For assay [3], the target named is T3, membrane-bound human RGMa (human, UniProt Q96B86 169-424).
T3 sequence (looked up): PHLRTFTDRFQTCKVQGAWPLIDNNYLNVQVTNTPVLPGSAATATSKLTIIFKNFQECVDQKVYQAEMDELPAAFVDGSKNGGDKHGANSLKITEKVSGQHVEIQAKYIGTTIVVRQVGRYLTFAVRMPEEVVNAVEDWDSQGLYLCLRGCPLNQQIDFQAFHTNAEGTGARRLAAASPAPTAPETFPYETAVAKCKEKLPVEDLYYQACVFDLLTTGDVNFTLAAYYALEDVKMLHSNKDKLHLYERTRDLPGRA
The assay can be described thus: cell-based or functional assay.

Assay [4] concerns the target T4, FcRn.
T4 construct: also called neonatal Fc receptor
The assay can be described thus: SPR (BIAcore) at pH 6.0.

In assay [5] the target is T5, membrane-bound human RGMc (human, UniProt Q6ZVN8 36-400).
T5 sequence: T2 sequence
The assay is described as follows: cell-based or functional assay.

Assay [6] concerns the target T6, soluble human RGMa (human, UniProt Q96B86 48-422, limits assumed).
T6 construct: Soluble antigen in BIAcore; also called huRGMa; repulsive guidance molecule A
T6 sequence (looked up): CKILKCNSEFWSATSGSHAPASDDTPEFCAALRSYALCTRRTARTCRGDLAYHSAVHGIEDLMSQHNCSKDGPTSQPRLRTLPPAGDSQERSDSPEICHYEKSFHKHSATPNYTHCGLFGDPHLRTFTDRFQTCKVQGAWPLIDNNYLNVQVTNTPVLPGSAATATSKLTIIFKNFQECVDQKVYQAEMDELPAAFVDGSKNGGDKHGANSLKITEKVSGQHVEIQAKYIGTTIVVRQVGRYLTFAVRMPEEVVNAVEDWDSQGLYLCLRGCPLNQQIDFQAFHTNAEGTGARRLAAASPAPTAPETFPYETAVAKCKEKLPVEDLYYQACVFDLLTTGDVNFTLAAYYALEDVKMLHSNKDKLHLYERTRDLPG
The assay is described as follows: SPR (BIAcore), RGM antigen in solution.

Assay [7] deals with T2, soluble human RGMc. The assay is described as follows: SPR (BIAcore), RGM antigen in solution. (In SPR one partner is held on a chip, and binding of the other changes the refractive index at the surface.)
Assay [8] has as its target T7, Cyno RGMa (cyno, UniProt Q9N0A6 54-433, limits assumed).
T7 sequence (looked up): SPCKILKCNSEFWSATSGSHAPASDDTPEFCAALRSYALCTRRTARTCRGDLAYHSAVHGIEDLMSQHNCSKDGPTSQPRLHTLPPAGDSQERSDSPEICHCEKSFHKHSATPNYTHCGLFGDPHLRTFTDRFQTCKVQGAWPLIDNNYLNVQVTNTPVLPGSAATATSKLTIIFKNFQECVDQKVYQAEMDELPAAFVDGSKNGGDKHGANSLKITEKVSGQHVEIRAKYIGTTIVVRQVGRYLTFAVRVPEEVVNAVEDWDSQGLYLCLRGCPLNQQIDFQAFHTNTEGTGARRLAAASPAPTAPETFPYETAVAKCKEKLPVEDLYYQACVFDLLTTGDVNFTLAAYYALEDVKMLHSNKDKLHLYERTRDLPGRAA
The assay is described as follows: SPR (BIAcore), RGM antigen in solution.

The target of assay [9] is T8, Rat RGMc (rat, UniProt Q8N7M5 36-396, limits assumed).
T8 sequence (looked up): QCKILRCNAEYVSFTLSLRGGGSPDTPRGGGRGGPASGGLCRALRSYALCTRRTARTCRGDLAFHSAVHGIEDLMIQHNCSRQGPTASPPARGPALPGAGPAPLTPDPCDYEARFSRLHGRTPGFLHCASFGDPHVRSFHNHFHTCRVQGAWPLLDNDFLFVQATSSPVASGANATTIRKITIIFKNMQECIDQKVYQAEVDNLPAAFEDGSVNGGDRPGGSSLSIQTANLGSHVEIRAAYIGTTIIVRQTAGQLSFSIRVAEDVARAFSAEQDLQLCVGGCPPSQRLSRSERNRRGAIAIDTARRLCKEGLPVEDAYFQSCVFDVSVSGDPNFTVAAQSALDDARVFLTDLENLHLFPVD
The assay can be described thus: SPR (BIAcore), RGM antigen in solution.

T4 sequence (P55899 24-297, chain 1 of 2): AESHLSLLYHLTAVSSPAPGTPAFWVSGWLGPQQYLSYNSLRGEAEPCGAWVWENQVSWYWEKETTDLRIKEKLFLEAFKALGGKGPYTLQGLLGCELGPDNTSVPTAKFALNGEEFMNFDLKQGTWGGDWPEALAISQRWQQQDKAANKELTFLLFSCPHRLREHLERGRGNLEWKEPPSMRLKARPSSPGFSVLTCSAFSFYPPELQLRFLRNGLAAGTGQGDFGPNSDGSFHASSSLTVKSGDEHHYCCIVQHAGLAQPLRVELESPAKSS
T4 sequence (P61769 21-119, chain 2 of 2, further chain): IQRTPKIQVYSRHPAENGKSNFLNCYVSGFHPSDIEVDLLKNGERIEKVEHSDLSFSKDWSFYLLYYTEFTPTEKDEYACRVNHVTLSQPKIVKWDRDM

B1: hHA-008 (antibody, human IgG1, kappa, L234A L235A)
heavy: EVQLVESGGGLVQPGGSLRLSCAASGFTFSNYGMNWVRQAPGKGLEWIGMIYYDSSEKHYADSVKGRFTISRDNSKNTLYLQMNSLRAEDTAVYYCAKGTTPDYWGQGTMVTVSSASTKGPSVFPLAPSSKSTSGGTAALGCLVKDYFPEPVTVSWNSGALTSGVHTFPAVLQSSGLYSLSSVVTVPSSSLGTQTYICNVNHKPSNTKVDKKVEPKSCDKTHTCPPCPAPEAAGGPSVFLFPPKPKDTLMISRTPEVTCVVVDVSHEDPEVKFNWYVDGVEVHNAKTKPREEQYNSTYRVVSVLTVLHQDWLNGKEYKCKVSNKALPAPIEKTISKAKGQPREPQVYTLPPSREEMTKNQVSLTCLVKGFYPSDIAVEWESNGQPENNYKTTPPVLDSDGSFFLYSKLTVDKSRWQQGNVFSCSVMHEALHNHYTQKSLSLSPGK
light: DVVLTQSPLSLPVTLGQPASISCRSSQSLEESDGYTFLHWFQQRPGQSPRLLIYEVSTRFSGVPDRFSGSGSGTDFTLKISRVEAEDVGVYYCFQATHDPLTFGQGTKLEIKRTVAAPSVFIFPPSDEQLKSGTASVVCLLNNFYPREAKVQWKVDNALQSGNSQESVTEQDSKDSTYSLSSTLTLSKADYEKHKVYACEVTHQGLSSPVTKSFNRGEC
notes: hIgG1 L234A, L235A, kappa; also called hHA-008 (hIgG1mut(LALA)/k)
Regarding B1, the equilibrium dissociation constant (Kd) was below 0.0015 nM in assay [1]; 0.105 nM in [2]; 2950 nM and 2960 nM in [4]; 0.074 nM in assay [6]; 0.12 nM in assay [7]; 0.64 nM in [8]. Also, in assay [9], the Kd was found to be 0.23 nM. Besides, the koff in assay [1] was below 1e-06 s⁻¹; in assay [2], 0.00039 s⁻¹; in assay [6], 3.6e-05 s⁻¹; in [7], 0.00029 s⁻¹; in assay [8], 0.00035 s⁻¹; in [9], 0.00032 s⁻¹. Further, the association rate constant (kon) in [1] turned out to be 660000 M⁻¹ s⁻¹; in assay [2], 3.95e+06 M⁻¹ s⁻¹; in assay [6] it was 490000 M⁻¹ s⁻¹; in assay [7], 2.5e+06 M⁻¹ s⁻¹; in [8], 550000 M⁻¹ s⁻¹; in [9], 1.4e+06 M⁻¹ s⁻¹. In addition, the “IC50 (nM), BMP reporter assay for RGMa” value in [3] was around 56.5 nM. Also, in [5], the “IC50 (read off the curve)” value was around 0.4 nM.

The Kd is the concentration at which binding is half-saturated. Read a high Kd as a looser complex. Broadly, the koff is a measure of how fast the partners let go of each other. Broadly, the kon is the rate constant with which the complex forms. Read a low kon as slow association.
